Patent US20240352111A1 (Regeneron, published 2024)

T1: hArtemin-MMH (human)
T1 construct: also called hARTN.mmh; hARTN (A108-G220).mmh
T1 chain: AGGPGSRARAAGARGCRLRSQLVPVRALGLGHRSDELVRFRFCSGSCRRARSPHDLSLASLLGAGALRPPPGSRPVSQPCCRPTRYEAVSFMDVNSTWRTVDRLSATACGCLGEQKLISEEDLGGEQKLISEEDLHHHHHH

T2: mArtemin-MMH (mouse)
T2 construct: also called msArtemin-MMH; msARTN.mmh
T2 chain: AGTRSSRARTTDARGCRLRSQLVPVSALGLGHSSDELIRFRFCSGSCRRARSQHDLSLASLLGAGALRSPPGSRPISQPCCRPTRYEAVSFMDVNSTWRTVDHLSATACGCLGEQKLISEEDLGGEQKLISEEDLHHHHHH

T3: MfArtemin-MMH (cynomolgous monkey (Macaca fascicularis))
T3 construct: also called mfARTN.mmh; mfARTN (A108-G22).mmh
T3 chain: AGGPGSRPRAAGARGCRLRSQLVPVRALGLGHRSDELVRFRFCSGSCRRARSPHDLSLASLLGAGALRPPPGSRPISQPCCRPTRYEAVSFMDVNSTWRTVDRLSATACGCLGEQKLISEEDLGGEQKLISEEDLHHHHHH


How the values were obtained:
hArtemin-MMH [1] = target: T1, hArtemin-MMH; assay: BLI (Octet HTX), mAb captured on AHC tips, artemin at 15 nM, 25 C
Experimental: (§1) The entire experiment was performed at 25° C. in 10 mM HEPES, 150 mM NaCl, 3 mM EDTA, 0.02% NaN3 and 0.05% v/v Surfactant Tween-20, 1 mg/mL BSA, pH7.4 (HBS-EBT) buffer with the plate shaking at a speed of 1000 rpm. Different Artemin mAbs were first captured onto anti-human antibody (AHC) coated Octet biosensor tips (Fortebio Inc, #18-5064) by submerging the biosensor tips for 40 seconds in wells containing 2 μg/mL of Artemin mAb. […] All the Artemin and Artemin mAb samples were prepared in HBS-EBT buffer. The real-time binding response was monitored during the entire course of the experiment and the binding response at the end of every step was recorded.

mArtemin-MMH [2] = target: T2, mArtemin-MMH; assay: as above
Experimental: as §1

MfArtemin-MMH [3] = target: T3, MfArtemin-MMH; assay: as above
Experimental: as §1

hArtemin-MMH [4] = target: T1, hArtemin-MMH; assay: cell-based or functional assay
mArtemin-MMH [5] = target: T2, mArtemin-MMH; assay: cell-based or functional assay
MfArtemin-MMH [6] = target: T3, MfArtemin-MMH; assay: cell-based or functional assay
MfArtemin-MMH [7] = target: T3, MfArtemin-MMH; assay: blocking ELISA, antibody blocks 400 pM mfARTN.mmh binding to plate-coated hGFRa3.hFc
Experimental: (§2) Experiments were carried out using the following procedures. Plates were coated with hGFRa3.hFc at 2 μg/ml in PBS on a 96-well microtiter plate at 4° C. overnight for all three assays. […] In other microtiter plates, a constant amount of either 75 pM hARTN.mmh, 400 pM mfARTN.mmh, or 150 pM msARTN.mmh were separately bound with anti-ARTN antibodies and an irrelevant IgG4 antibody control at a serial dilution series from 0.0017 nM to 100 nM in PBS+0.5% BSA. After a one-hour incubation, the mixture solutions were transferred to microtiter plates coated with hGFRa3.hFc. After one hour of incubation at RT, the wells were washed with PBST, and plate-bound ARTN was detected with an anti-penta-His antibody conjugated with horseradish peroxidase (HRP) (Qiagen). The plates were then developed using TMB substrate solution (BD Biosciences, #555214) according to manufacturer's recommendation and absorbance at 450 nm was measured on a Victor X5 plate reader.
(§3) Binding data were analyzed using a sigmoidal dose-response model within Prism™ software (GraphPad). […] If the calculated IC50 value was below the LLOA, less than LLOA was reported. Percent blocking at 100 nM antibody was calculated based on the background-corrected binding signal observed at the highest antibody concentration tested using the formula listed below and reported for all tested antibodies: […]

mArtemin-MMH [8] = target: T2, mArtemin-MMH; assay: blocking ELISA, antibody blocks 150 pM msARTN.mmh binding to plate-coated hGFRa3.hFc
Experimental: as §2, §3

hArtemin-MMH [9] = target: T1, hArtemin-MMH; assay: blocking ELISA, antibody blocks 75 pM hARTN.mmh binding to plate-coated hGFRa3.hFc
Experimental: as §2, §3

hArtemin-MMH [10] = target: T1, hArtemin-MMH; assay: BLI (Octet HTX), mAb captured on AHC tips, artemin at 30 nM, 25 C
Experimental: as §1

mArtemin-MMH [11] = target: T2, mArtemin-MMH; assay: as above
Experimental: as §1

MfArtemin-MMH [12] = target: T3, MfArtemin-MMH; assay: as above
Experimental: as §1

hArtemin-MMH [13] = target: T1, hArtemin-MMH; assay: BLI (Octet HTX), mAb captured on AHC tips, artemin at 7.5 nM, 25 C
Experimental: as §1

mArtemin-MMH [14] = target: T2, mArtemin-MMH; assay: as above
Experimental: as §1

MfArtemin-MMH [15] = target: T3, MfArtemin-MMH; assay: as above
Experimental: as §1

hArtemin-MMH [16] = target: T1, hArtemin-MMH; assay: BLI (Octet HTX), mAb captured on AHC tips, artemin at 3.75 nM, 25 C
Experimental: as §1

mArtemin-MMH [17] = target: T2, mArtemin-MMH; assay: as above
Experimental: as §1

MfArtemin-MMH [18] = target: T3, MfArtemin-MMH; assay: as above
Experimental: as §1

Row | Artemin Binding Response (nm) (hArtemin-MMH [1]) | Artemin Binding Response (nm) (mArtemin-MMH [2]) | Artemin Binding Response (nm) (MfArtemin-MMH [3]) | Max inhibition (%), SRE-luciferase reporter, 500 pM hArtemin (hArtemin-MMH [4]) [%] | Max inhibition (%), SRE-luciferase reporter, 1 nM mArtemin (mArtemin-MMH [5]) [%] | Max inhibition (%), SRE-luciferase reporter, 3 nM mfArtemin (MfArtemin-MMH [6]) [%] | % Blocking with 100 nM Ab (MfArtemin-MMH [7]) [%] | % Blocking with 100 nM Ab (mArtemin-MMH [8]) [%] | % Blocking with 100 nM Ab (hArtemin-MMH [9]) [%] | IC50 (hArtemin-MMH [9]) [nM] | Artemin Binding Response (nm) (hArtemin-MMH [10]) | Artemin Binding Response (nm) (mArtemin-MMH [11]) | Artemin Binding Response (nm) (MfArtemin-MMH [12]) | Artemin Binding Response (nm) (hArtemin-MMH [13]) | Artemin Binding Response (nm) (mArtemin-MMH [14]) | Artemin Binding Response (nm) (MfArtemin-MMH [15]) | Artemin Binding Response (nm) (hArtemin-MMH [16]) | Artemin Binding Response (nm) (mArtemin-MMH [17]) | Artemin Binding Response (nm) (MfArtemin-MMH [18]) | Binder | further results
1 | 0.09 | 0.01 | 0.03 | 100 | 100 | 100 | 86 | 81 | 93 | 0.161 | 0.12 | 0.03 | 0.06 | 0.05 | 0 | 0.01 | 0.03 | 0.01 | 0.01 | H4H33336P (antibody, human IgG4 S228P, kappa, V domains shown, Fully human antibody; also called Artemin mAb; anti-ARTN antibody) VH: QVQLVESGGGVVQPGRSLRLSCVASGFILSHYGMHWVRQAPGKGLEWVAVIWFDGTNKYYADSVKGRFTVSRDNSKNTLYMQMNSLRAEDTAVYYCARDPPPARRGNYNGMDVWGQGTTVTVSS VL: DIQMTQSPSSLSASVGDRVTITCRASQDIRNDLGWYQQKPGKAPKRLIFGASSLQSGVPLRFSGSGSGTEFTLTINNLQPEDFATFYCLQDNSYPWTFGQGTKVEIKR | IC50 (mArtemin-MMH [8]): 0.41 nM
2 | 0.11 | 0.11 | 0.09 | 100 | 100 | 100 | 88 | 88 | 95 | 0.128 | 0.11 | 0.11 | 0.12 | 0.11 | 0.11 | 0.04 | 0.07 | 0.07 | 0.02 | H4H33349P (antibody, human IgG4 S228P, kappa, V domains shown, Fully human antibody; also called Artemin mAb; anti-ARTN antibody) VH: QVQLVESGGGVVQPGRSLRLSCEASGFTFSDYDLHWVRQAPGKGLEWVAFISNDGSNEYYPKSVKGRFSISRDNSKNTLYLQMNSLRAEDTAVYHCTKERDYYYDSSGSLDYWGQGTLVTVSS VL: DIQMTQSPSSLSASVGDRVTITCRASQTINNYLNWYQQKPGKAPKLLIYTTSGLQSGVPSRFSGRGSGTDFTLAISSLQPEDFATYYCQQSYHSPFTFGPGTKVDIKR | 
3 | 0.11 | 0.08 | 0.03 | 100 | 100 | 100 | 90 | 83 | 88 | 0.38 | 0.11 | 0.1 | 0.09 | 0.07 | 0.07 | 0.01 | 0.02 | 0.03 | 0 | H4H33331P (antibody, human IgG4 S228P, kappa, V domains shown, Fully human antibody (human variable and constant domains) from a VELOCIMMUNE mouse; also called Artemin mAb; anti-ARTN antibody) VH: EVQLVESGGDLVQPGGSLKLSCAASGFTFSGSAMHWVRQASGKGLEWVGRIRNKVHRYATEYGASVKGRFTISRDDSKNTAYLQMNSLKIEDTAVYYCVVVVPGSIEAFDIWGQGTMVTVSS VL: DIQMTQSPSSLSASVGDRVTITCRASQSISTYLNWYQQKPGKAPNLLIYAASTLESGVPSRFSGSGSGTDFTLTISSLQPEDFEIYYCQQSYNIPWTFGQGTKVEIKR | IC50 (MfArtemin-MMH [7]): 0.105 nM
